Data published in US20030003502A1 (published 2003).

Target: T1, PhFc-Cε3/Cε41-222 (human, UniProt P01854 211-427, N-linked carbohydrate attached at N394 (NAG/MAN residues 694-699 in Table 1))
T1 construct: Fc fragment of human IgE (Cε3 and Cε4 domains); It is a dimer of two identical chains with an interchain disulfide near residue 329; Produced in Trichoplusia ni (Hi-5) insect cells; also called human IgE-Fc Cε3/Cε4 domains; IgE-Fc
Assay: complex formation and co-crystallization, crystal form I
Protocol: The structure was determined by molecular replacement techniques as described in Methods. Manual model building was done with the program O¹⁸ and refinement carried out with CNS¹⁹. Current refinement statistics for the complex are shown in Table 3, with an overall R-free of 29.3% and R-cryst of 27.0% to 3.25 Å.
Human IgE-Fc Cε3/Cε4 domains and a carbohydrate mutant of the FcεRIα¹¹ were expressed in insect cells essentially as described for IgE-Fc Cε3/Cε4 in 60/189,403. Complexes of wt-Fc-Cε3/Cε4 and wt-FcεRIα produced only poorly diffracting crystals. Since the receptor is heavily glycosylated (˜33% carbohydrate by weight), and the carbohydrate sites are dispersed on the receptor surface, a subset of these attachment sites was removed to improve the protein crystallization. A previously-described carbohydrate mutant of the receptor¹⁷ lacking three of the seven wild type carbohydrate sites (residues 74, 135, and 140) located on both D1 and D2 in the receptor structure. The triple receptor mutant, FcεRIαΔ4-6 was subcloned into the pvl1392 baculovirus transfer vector and recombinant virus produced. The mutant receptor was active, expressed well and was purified by affinity chromatography similarly to the wt protein. […]

T1 sequence (P01854 other isoform, or with tags, fused parts or gaps limits assumed): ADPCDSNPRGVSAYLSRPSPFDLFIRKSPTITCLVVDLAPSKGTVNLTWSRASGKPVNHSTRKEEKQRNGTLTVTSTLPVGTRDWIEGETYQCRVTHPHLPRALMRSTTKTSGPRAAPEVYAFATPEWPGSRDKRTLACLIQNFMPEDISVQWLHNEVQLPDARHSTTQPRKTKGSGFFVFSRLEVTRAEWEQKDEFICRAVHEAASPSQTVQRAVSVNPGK

binding result: binds
B1: PhFcεRIα1-176 (receptor)
chain: VPQKPKVSLNPPWNRIFKGENVTLTCNGNNFFEVSSTKWFHNGSLSEETNSSLNIVNAKFEDSGEYKCQHQQVNESEPVYLEVFSDWLLLQASAEVVMEGQPLFLRCHGWRNWDVYKVIYYKDGEALKYWYENHNISITNATVEDSGTYYCTGKVWQLDYESEPLNITVIKAPREK
modifications: N-linked carbohydrate (seven native attachment sites; about 33% carbohydrate by weight)
notes: also called hFcεRIα1-176 protein; wild type (wt) FcεRIα
